Article PMC7755396 (eLife, 2020)

Columns and labels:
Conditions in all cases: both partners purified
[1] = target: T1, Puumala virus (Gn−Gc)4 glycoprotein spike on virus-like particles (Puumala orthohantavirus, strain …, UniProt P27312); assay: cryo-EM structure
T1 construct: copies: 4 + 4

[2] = target: T2, Puumala virus Gc as displayed on virus-like particles (Puumala orthohantavirus); assay: cryo-EM structure
T2 chain: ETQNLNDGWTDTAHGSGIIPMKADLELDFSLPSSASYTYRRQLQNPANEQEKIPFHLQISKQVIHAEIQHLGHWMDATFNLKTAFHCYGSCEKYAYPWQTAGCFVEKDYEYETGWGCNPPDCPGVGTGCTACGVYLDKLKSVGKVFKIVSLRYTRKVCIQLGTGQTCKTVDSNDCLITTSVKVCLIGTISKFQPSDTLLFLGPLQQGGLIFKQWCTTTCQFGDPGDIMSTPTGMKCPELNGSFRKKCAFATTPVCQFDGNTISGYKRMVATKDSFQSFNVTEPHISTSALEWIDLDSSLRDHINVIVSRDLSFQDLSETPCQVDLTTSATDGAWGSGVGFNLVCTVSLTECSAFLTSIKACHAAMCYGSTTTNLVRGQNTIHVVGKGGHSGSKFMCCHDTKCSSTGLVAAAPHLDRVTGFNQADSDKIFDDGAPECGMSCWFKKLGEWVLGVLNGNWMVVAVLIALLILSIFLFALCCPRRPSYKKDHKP

[3] = target: Puumala virus (PUUV) Gc ectodomain, residues 659–1105 (Puumala orthohantavirus, GPC of GenBank …, UniProt Q9WJ31); assay: crystal structure

Measured: binding result

B1: Fab P-4G2 (antigen-binding fragment of mAb P-4G2) (Fab, V domains shown)
VH: QVQMKESGGGLVQPGKSLKLSCAASGFTFSDFWMSWVRQPSGKGLEWVARINTNGDTTHYTDDMKGRFTISRDNAKTTLYLEMSPLKSEDTAMYYCTRDRLGPFDYWGQGTTVTVSS
VL: DIVMTQSPAFPPVSLGDTVTITCQASQSVYKNLAWYQQKPGKSPRLLIFGMSSLADGVPSRFSASGSDKQYSLKIRGLQPEDAAIYYCQQHYIAPYTFGAGTRLEIK
notes: also called Fab 4G2
binds: all assays above
